Assay results published in article PMC10272880.

Target: T1, LldR (Escherichia coli K-12 W3110 type-A) (UniProt P0ACL7)
T1 sequence: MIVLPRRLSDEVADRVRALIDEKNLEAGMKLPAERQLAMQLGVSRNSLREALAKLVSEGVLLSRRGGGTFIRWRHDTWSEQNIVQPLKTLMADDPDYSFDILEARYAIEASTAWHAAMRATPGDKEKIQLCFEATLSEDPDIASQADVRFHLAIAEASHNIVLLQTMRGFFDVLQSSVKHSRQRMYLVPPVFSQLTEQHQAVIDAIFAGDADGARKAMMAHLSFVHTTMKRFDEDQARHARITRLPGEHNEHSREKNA
Experiment: EMSA
Conditions: EMSA: binding buffer (composition given for gSELEX: 10 mM Tris-HCl pH 7.8 at 4 °C, 3 mM Mg acetate, 150 mM NaCl, 1.25 mg/ml BSA), 37 °C 30 min, then effector …

Sequence | binding
TCCCGGACCTCGTGCACAGGTAGGACCAATTTTTCTGTTCTTAACTCGCAAAACACGCACATCACGTAAGTGATTATGTTACATCAATTTAACATTGAGTTAACCAAGACAAGGTCACAGAGCTGGAAAAAAAATGGTCTGACCGGTAGCTAAAGAGATAGACGAAAACGAAAAGCCCGCTTAATAACTGTTCACAGAAGCAGCGCGCAAAAATCAGCTGCCACACAACACAACAAAGCGAAGCCTACTCATGAGCATCTTGTACGAAGAGCGTCTT (double strand) [glcD/glcC probe] | binds
GATTTTCAACCAGATATGATCATGGTTACGCCATCTTATTGCCTTAACCTGATTGAAGAGCTGGAGCGGCAGTTGGGCGGTGATGCCAGCGGTTGCTCGCTGCGGGTTGGAGTATTTGGTGCTGAGCCGTGGACACAGGCCATGCGTAAAGAGATTGAGCGTCGCCTGGGGATCACCGCACTGGATATTTATGGCCTGTCAGAAGTGATGGGGCCGGGGGTGGCGATGGAGTGTCTGGAAACTACCGACGGCCCAACCATTTGGGAAGATCATTTCTATCCTGAAATTGTTA (double strand) [paaX promoter probe] | no binding
